Where “and” joins values, the source holds several entries; their conditions need not be identical. Equal entries are not always repeated.
T1: DREB2A (Arabidopsis thaliana (Mouse-ear cress), UniProt O82132)
T1 chain: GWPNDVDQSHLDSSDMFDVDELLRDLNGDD

T2: ANAC013 (Arabidopsis thaliana (Mouse-ear cress), UniProt F4IED2)
T2 chain: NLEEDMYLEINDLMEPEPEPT

T3: ANAC013 254-274 (Arabidopsis thaliana, UniProt F4IED2)
T3 chain: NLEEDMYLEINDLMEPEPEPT

T4: DREB2A 243-272 (Arabidopsis thaliana, UniProt O82132)
T4 chain: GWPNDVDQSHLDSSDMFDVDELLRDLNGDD


Experiments:
[1] = target: DREB2A 243-272 (Arabidopsis thaliana) (UniProt O82132); test: ITC; details: cited from earlier work
[2] = target: ANAC013 254-274 (Arabidopsis thaliana) (UniProt F4IED2); test: ITC; details: cited from earlier work
DREB2A = target: T1, DREB2A; test: ITC 25 C
ANAC013 = target: T2, ANAC013; test: ITC 25 C
ANAC013 254-274 = target: T3, ANAC013 254-274; test: ITC
DREB2A 243-272 = target: T4, DREB2A 243-272; test: ITC

Molecule	Kd (DREB2A) [nM]	Kd [1] [nM]	Kd (ANAC013) [nM]	also measured
RCD1 RST (from UniProt Q8RY59)		16		
RCD1 499-572 (from UniProt Q8RY59)		16		Kd [2]: 9 nM
AtRCD1_RST (protein) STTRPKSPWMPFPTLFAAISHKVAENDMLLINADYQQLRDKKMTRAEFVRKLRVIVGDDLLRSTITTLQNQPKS	16		9	
AtTAF4 180-254 (protein) NVNPINRNPKQVPFAALLPTLMNQLDKDRALQLRTLYARLKKNEIPKEGFTRHMKDIVGDQMLRMAVSKLQQVNY				Kd (ANAC013 254-274): 1080 nM; Kd (DREB2A 243-272): 740 nM and 1050 nM

The next lines start with results.

Kd (DREB2A) [nM]	Molecule	Kd [1] [nM]	Kd (ANAC013) [nM]	also measured
110	HsTAF4_TAFH (protein) TSSAATETMENVKKCKNFLSTLIKLASSGKQSTETAANVKELVQNLLDGKIEAEDFTSRLYRELNSSPQPYLVPFLKRSLPALRQLTPDSAAFIQQS			
740	AtTAF4_RST (protein) NPINRNPKQVPFAALLPTLMNQLDKDRALQLRTLYARLKKNEIPKEGFTRHMKDIVGDQMLRMAVSKLQQVNY		1080	
